Biological target: the molecule itself
Test: SEC + AUC

B1: HCoV-229E fusion core (FC1), HR1-linker-HR2 single chain (domain or fragment)
chain: ENQKILAASFNKAMTNIVDAFTGVNDAITQTSQALQTVATALNKIQDVVNQQGNSLNHLTSQLRQNFQLVPRGSGGSGGSGGLEVLFQGPDLVVEQYNQTILNLTSEISTLENKSAELNYTVQKLQTLIDNINSTLVDLKWL
Question: Which “stoichiometry N” value does the source give for B1 here?
Answer: The value was 3.
